Laboratory results as given in patent US8268550B2, “Compositions and methods for identification of PARP function, inhibitors, and activators” (Massachusetts Institute of Technology, priority 2009, dated 2012).

System: 293T cells
Assay: Modified pGL4.72[hRlucCP] vector luciferase assay of RNAi/miRNA activity
Format: cell-based
Conditions: overexpression from pEGFP-C1; 10 nM vector-target RNAi; 48 hours post-transfection; FIG. 30
Method: To identify additional substrate proteins of PAPR13, immunoprecipitation experiments were performed on lysate from HeLa cells transfected with a pEGFP-C1 plasmid containing a sequence encoding a PARP13-GFP fusion protein following treatment with either 0 or 250 μM sodium arsenite for 30 minutes. The cell lysate was treated with an anti-GFP antibody and the resulting immunoprecipitated proteins were electrophoresed using SDS-PAGE. […] In a second set of experiments, the ability of the vector-target RNAi to reduce the expression of luciferase was measured in 293T cells transfected with pGL4.72[hRlucCP]™ vector, 20 nM vector-target RNAi, and 20 nM of negative RNAi control for PARP13 siRNA (siNeg; AllStars Negative Control siRNA; Qiagen Catalog No. 1027280) or PARP13 siRNA (siPARP13; SEQ ID NO: 40) following treatment with 0 or 30 nM pateamine A for 2 hours. […]
Experiments to determine the effect of knockdown of PARP13 on miRNA and RNAi activity were performed using a modified pGL4.72[hRlucCP]™-vector assay (Promega). […] Following 48-hours incubation, the level of luciferase protein production was measured using a luciferase assay kit (Promega). […]

B1: PARP13: PARP13 overexpressed from a pEGFP-C1 expression vector; isoform not specified (protein)
chain: ADPEVCCFITKILCAHGGRMALDALLQEIALSEPQLCEVLQVAGPDRFVVLETGGEAGITRSVVATTRARVCRRKYCQRPCDNLHLCKLNLLGRCNYSQSERNLCKYSHEVLSEENFKVLKNHELSGLNKEELAVLLLQSDPFFMPEICKSYKGEGRQQICNQQPPCSRLHICDHFTRGNCRFPNCLRSHNLMDRKVLAIMREHGLNPDVVQNIQDICNSKHMQKNPPGPRAPSSHRRNMAYRARSKSRDRFFQGSQEFLASASASAERSCTPSPDQISHRASLEDAPVDDLTRKFTYLGSQDRARPPSGSSKATDLGGTSQAGTSQRFLENGSQEDLLHGNPGSTYLASNSTSAPNWKSLTSWTNDQGARRKTVFSPTLPAARSSLGSLQTPEAVTTRKGTGLLSSDYRIINGKSGTQDIQPGPLFNNNADGVATDITSTRSLNYKSTSSGHREISSPRIQDAGPASRDVQATGRIADDADPRVALVNDSLSDVTSTTSSRVDDHDSEEICLDHLCKGCPLNGSCSKVHFHLPYRWQMLIGKTWTDFEHMETIEKGYCNPGIHLCSVGSYTINFRVMSCDSFPIRRLSTPSSVTKPANSVFTTKWIWYWKNESGTWIQYGEEKDKRKNSNVDSSYLESLYQSCPRGVVPFQAGSRNYELSFQGMIQTNIASKTQKDVIRRPTFVPQWYVQQMKRGPDHQPAKTSSVSLTATFRPQEDFCFLSSKKYKLSEIHHLHPEYVRVSEHFKASMKNFKIEKIKKIENSELLDKFTWKKSQMKEEGKLLFYATSRAYVESICSNNFDSFLHETHENKYGKGIYFAKDAIYSHKNCPYDAKNVVMFVAQVLVGKFTEGNITYTSPPPQFDSCVDTRSNPSVFVIFQKDQVYPQYVIEYTEDKACVIS
- decrease in the level of miRNA-mediated repression compared to control cells (EGFP- and G3BP-overexpressing cells): 3 fold
